The target in test [1] is T1, 8-histidine tagged recombinant wild-type protein EGFRwt (UniProt P00533 25-645, limits assumed).
T1 construct: not shown: 8-histidine tag
Nature of the test: SPR, captured by anti-human Fc, 25 C. (In general: In SPR one partner is held on a chip, and binding of the other changes the refractive index at the surface.)

Test [2] concerns the target T2, Monomeric 8-histidine tagged human EGFRvIII extracellular domain (human, UniProt P00533 298-645).
T2 construct: Analyte in all SPR assays; not shown: 8-histidine tag
Kind of test: SPR, scFv-Fc captured by anti-human Fc, 37 C. The method, then:
The scFv fragment was then fused to human IgG1 Fc moiety to facilitate recombinant expression and purification. Affinities of the scFv-Fc fusion proteins were measured at 37° C. on a surface plasmon resonance Biacore™ T200 biosensor equipped with an anti-human Fc coupled CM4 sensor chip (GE Healthcare Inc., Piscataway, N.J.) as described above. scFv-Fc proteins were captured by anti-human Fc. Monomeric 8-histidine tagged human EGFRvIII extracellular domain was then injected as the analyte at 10-fold dilution series starting at 1000 nM.

In test [3] the target is T3, human EGFRvIII expressed on cells (human, UniProt P00533 298-1210).
T3 construct: the F98-npEGFRvIII line was obtained from ATCC and its construct is not described; also called F98-npEGFRvIII; F98-EGFRvIII
Kind of test: flow cytometry, F98-npEGFRvIII against F98, F98-EGFRwt and A431 cells. Background: A flow cytometer gives signals particle by particle.

Test [4] deals with T3, human EGFRvIII expressed on cells. Nature of the test: flow cytometry, F98-npEGFRvIII cells.
For test [5], the target named is T1, 8-histidine tagged recombinant …. Nature of the test: SPR, captured by anti-mouse Fc.
For test [6], the target named is T2, Monomeric 8-histidine tagged human …. Nature of the test: SPR, captured by anti-mouse Fc, 37 C. The source says:
To generate human antibodies against EGFRvIII, transgenic AlivaMab mice (Ablexis LLC, San Francisco, Calif.) were immunized with alternating schedule of paraformaldehyde-fixed rat glioblastoma cell line expressing EGFRvIII, F98-npEGFRvIII (American Type Culture Collection, Manassas, Va.) and peptides (SEQ ID NO: 227: […]) directed to the junction region in EGFRvIII. Hybridomas were generated using standard techniques. To determine the binding affinity and specificity of these hybridomas to EGFRvIII, antibodies in culture supernatants were captured by anti-mouse Fc using Biacore™ T200 biosensor equipped with anti-mouse Fc coupled CM4 sensor chips (Biacore™ AB, Uppsala, Sweden—now GE Healthcare). Monomeric 8-histidine tagged human EGFRvIII extracellular domain was then injected as the analyte at 10-fold dilution series starting with top concentration 1000 nM. Affinity of anti-EGFRvIII antibodies towards human EGFRvIII was measured at 37° C.

Numbering of substitutions follows the chain as printed.

B1: 20E12.HL scFv-Fc protein (Fc fusion)
chain: EVNLVESGGGLVKPGGSLRLSCEASGFTFSYAWMSWVRQAPGKGLEWVGRIKSIADGGATDYAAPVRNRFTISRDDSRNTLYLEMHSLKTEDTAVYYCTTIPGNDAFDMWGQGTMVTVSSGGGGSGGGGSGGGGSGGGGSDIVLTQSPLSLSVTPGEPASISCRSSQSLLYSNGKNYLDWFLHKPGQSPQLLIYLGSNRASGVPDRFSGSGSGIDFILKISRVEAEDVGVYYCMQAQQTPITFGQGTRLEIK
notes: HL: heavy-chain variable domain at the N-terminus; not shown: human IgG1 Fc moiety
In the case of B1, in test [1], the binding result is on record as “no binding (tested: 1000 nM)”. In test [2], the Kd (in general, the free concentration of one partner at which half of the binding sites on the other are occupied at equilibrium, for simple one-to-one binding) came out at 894 nM; the koff (usually a measure of how fast the partners let go of each other) was 0.019 s⁻¹; the kon (commonly the second-order rate constant of association) turned out to be 21000 M⁻¹ s⁻¹.

B2: 32G8.HL scFv-Fc protein (Fc fusion)
chain: B1 chain with A55T, A59V, T60I, F70C, A106D, T114R
notes: as for B1
Take B2: in test [1], the binding result was “no binding (tested: 1000 nM)”. In test [2], this molecule gave a Kd of 1490 nM, a koff of 0.013 s⁻¹ and a kon of 8700 M⁻¹ s⁻¹.

B3: 26B9.LH scFv-Fc protein (Fc fusion)
chain: DIVLTQSPLSLPVTPGEPASISCRSSQSLLHRDGFNYLDWFLQKPGQSPQLLIYLASSRASGVPDRFSGSDSGTDFTLKISRVEAEDVGVYYCMQALQTPITFGQGTRLEIKGGGGSGGGGSGGGGSGGGGSEVQLVESWGVLVKPGGSLRLSCAASGFIFNNAWMSWVRQAPGKGLEWIGRIKSKSDGGTTDYAAPVKDRFTISRDDSKDTLYLQMNGLKTEDTAVYFCTTAPGGPFDYWGQGTLVTVSS
notes: LH: light-chain variable domain at the N-terminus; not shown: human IgG1 Fc moiety
Turning to B3, the binding result in test [1] is “no binding (tested: 1000 nM)”. Besides, in test [2], the Kd is 494 nM, the koff was determined as 0.034 s⁻¹ and the kon stood at 69000 M⁻¹ s⁻¹.

B4: 30D8.LH scFv-Fc protein (Fc fusion)
chain: DIVMTQSPLSLPVTPGEPASISCRSSQSLLHNKRNNYLDWFLQKPGQSPQLLIYLASNRASGVPDRFSGGGSGTDFTLKISRVEAEDVGVYYCMQAQQTPITFGQGTRLEIKGGGGSGGGGSGGGGSGGGGSEVQLVESGGGLVKPGGSLRLSCEASGFTFSDAWMSWVRQAPGKGLEWVGRIKSKTDGGTTDYVVPLNGRFIISRDDSRNTLYLQLNNLKTEDTAVYYCTTVPGSYGYWGQGTLVTVSS
notes: as for B3
In the case of B4, in test [1], the binding result is reported as “no binding (tested: 1000 nM)”. In test [2], this molecule showed a Kd of 349 nM, a koff of 0.038 s⁻¹ and an association rate constant (kon) of 110000 M⁻¹ s⁻¹.

B5: 20E12.LH scFv-Fc protein (Fc fusion)
chain: DIVLTQSPLSLSVTPGEPASISCRSSQSLLYSNGKNYLDWFLHKPGQSPQLLIYLGSNRASGVPDRFSGSGSGIDFILKISRVEAEDVGVYYCMQAQQTPITFGQGTRLEIKGGGGSGGGGSGGGGSGGGGSEVNLVESGGGLVKPGGSLRLSCEASGFTFSYAWMSWVRQAPGKGLEWVGRIKSIADGGATDYAAPVRNRFTISRDDSRNTLYLEMHSLKTEDTAVYYCTTIPGNDAFDMWGQGTMVTVSS
notes: as for B3
For B5, the binding result in test [1] is “no binding (tested: 1000 nM)”. For the same molecule, in test [2], the Kd worked out at 932 nM, the koff was found to be 0.015 s⁻¹ and the kon worked out at 16000 M⁻¹ s⁻¹.

B6: 20E12 (antibody, V domains shown)
VH: EVNLVESGGGLVKPGGSLRLSCEASGFTFSYAWMSWVRQAPGKGLEWVGRIKSIADGGATDYAAPVRNRFTISRDDSRNTLYLEMHSLKTEDTAVYYCTTIPGNDAFDMWGQGTMVTVSS
VL: DIVLTQSPLSLSVTPGEPASISCRSSQSLLYSNGKNYLDWFLHKPGQSPQLLIYLGSNRASGVPDRFSGSGSGIDFILKISRVEAEDVGVYYCMQAQQTPITFGQGTRLEIK
notes: Hybridoma supernatant (AlivaMab mouse); captured/detected via mouse Fc
As for B6, the “fold MFI on EGFRvIII expressing cell line over non-expressing cell lines” value (shortened to “fold MFI … over non-expressing cell lines”) in test [3] is at least 10 fold. Moreover, in test [4], the “% positive” value turned out to be 97.9% and the MFI came out at 3980. Also, the binding result in test [5] is listed as “no binding (tested: 1000 nM)”. In test [6], this molecule returned a Kd of 353 nM, a koff of 0.0141 s⁻¹ and a kon of 39900 M⁻¹ s⁻¹.

B7: 32G8 (antibody, V domains shown)
VH: B6 VH with A55T, A59V, T60I, F70C, A106D, T114R
VL: B6 VL
notes: as for B6
As for B7, the “fold MFI … over non-expressing cell lines” value in test [3] is at least 10 fold. In test [4], the “% positive” value stood at 98.6% and the MFI worked out at 3730. The binding result in test [5] was “no binding (tested: 1000 nM)”. In addition, in test [6], the Kd stood at 1790 nM, the koff was found to be 0.0122 s⁻¹ and the on-rate (kon) was found to be 6820 M⁻¹ s⁻¹.

B8: 34E7 (antibody, V domains shown)
VH: B6 VH with A55N, A64S, T80M, M115L
VL: B6 VL with S26T, Y54F, N58I
notes: as for B6
As for B8, the “fold MFI … over non-expressing cell lines” value in test [3] is at least 10 fold. Further, in test [4], the “% positive” value was 98.5% and the MFI is 4130. In addition, in test [5], the binding result is listed as “no binding (tested: 1000 nM)”. In test [6], this molecule registered a Kd of 340 nM, a koff of 0.0128 s⁻¹ and a kon of 37700 M⁻¹ s⁻¹.

B9: 30D8.HL scFv-Fc protein (Fc fusion)
chain: EVQLVESGGGLVKPGGSLRLSCEASGFTFSDAWMSWVRQAPGKGLEWVGRIKSKTDGGTTDYVVPLNGRFIISRDDSRNTLYLQLNNLKTEDTAVYYCTTVPGSYGYWGQGTLVTVSSGGGGSGGGGSGGGGSGGGGSDIVMTQSPLSLPVTPGEPASISCRSSQSLLHNKRNNYLDWFLQKPGQSPQLLIYLASNRASGVPDRFSGGGSGTDFTLKISRVEAEDVGVYYCMQAQQTPITFGQGTRLEIK
notes: as for B1
Regarding B9, the binding result in test [1] is “no binding (tested: 1000 nM)”. In test [2], this molecule came in with a Kd of 225 nM, an off-rate (koff) of 0.053 s⁻¹ and a kon of 230000 M⁻¹ s⁻¹.

B10: 30D8 (antibody, V domains shown)
VH: EVQLVESGGGLVKPGGSLRLSCEASGFTFSDAWMSWVRQAPGKGLEWVGRIKSKTDGGTTDYVVPLNGRFIISRDDSRNTLYLQLNNLKTEDTAVYYCTTVPGSYGYWGQGTLVTVSS
VL: DIVMTQSPLSLPVTPGEPASISCRSSQSLLHNKRNNYLDWFLQKPGQSPQLLIYLASNRASGVPDRFSGGGSGTDFTLKISRVEAEDVGVYYCMQAQQTPITFGQGTRLEIK
notes: as for B6
Turning to B10, the “fold MFI … over non-expressing cell lines” value in test [3] is at least 10 fold. For the same molecule, in test [4], the “% positive” value worked out at 98.6% and the MFI came out at 5160. Moreover, in test [5], the binding result was “no binding (tested: 1000 nM)”. Also, in test [6], binding was put at a Kd of 172 nM, the koff came to 0.0277 s⁻¹ and the kon is 161000 M⁻¹ s⁻¹.

B11: 20G5 (antibody, V domains shown)
VH: EVQLVESGGDLVKPGGSLRLSCAASGFTFTNAWMSWVRQAPGKGLEWVGRIKSKIDGGTTDYAAPVKGRFIISRDDSKNTLSLQMNSLKTEDTAMYYCTTAPGGPFDYWGQGSLVTVSS
VL: DIVLTQSPLSLPVTPGEPASISCRSSQSLLYSDRRNYLDWFLQKPGQSPHLLIYLGSYRASGVPDRFSGSGSGTDFTLKISRVEAEDVGVYYCMQALQIPITFGQGTRLEIK
notes: as for B6
For B11, in test [4], the “% positive” value stood at 98.5% and the MFI was 4640. In addition, in test [5], the binding result was “no binding (tested: 1000 nM)”. In test [6], this molecule had a Kd of 231 nM, an off-rate (koff) of 0.0289 s⁻¹ and a kon of 125000 M⁻¹ s⁻¹.

B12: 26B9 (antibody, V domains shown)
VH: EVQLVESWGVLVKPGGSLRLSCAASGFIFNNAWMSWVRQAPGKGLEWIGRIKSKSDGGTTDYAAPVKDRFTISRDDSKDTLYLQMNGLKTEDTAVYFCTTAPGGPFDYWGQGTLVTVSS
VL: B11 VL with Y31H, S32R, R34G, R35F, H50Q, G56A, Y58S, G71D, I99T
notes: as for B6
Take B12: the “fold MFI … over non-expressing cell lines” value in test [3] is at least 10 fold. Also, in test [4], the “% positive” value came out at 98.6% and the MFI was 5400. For the same molecule, in test [5], the binding result is recorded as “no binding (tested: 1000 nM)”. In addition, in test [6], the affinity, expressed as Kd, was 244 nM; the off-rate constant (koff) was found to be 0.032 s⁻¹; the association rate constant (kon) is 131000 M⁻¹ s⁻¹.

These data come from patent US20190144550A1 (Pfizer, published 2019).
